From publication PMC11707020

Biological target: USP25 (UniProt Q9UHP3)
Assay: co-immunoprecipitation, western blot
Conditions: reference: HA-STAT3 wild type; sites Y705

binding against the reference: weaker
Substance: STAT3 (from UniProt P40763) HA-STAT3 Y705F
